In test [1] the target is T1, huCDH19(44-772), Flag-tagged, on 293T cells (human, UniProt Q9H159 44-772).
T1 construct: Expressed with native leader (1-43) followed by a Flag tag; leader left out; also called Hu EC1-5
Put plainly: FACS, transfected 293T. In general terms: In flow cytometry, cells or beads pass a laser one at a time.
From the text: (§1) The experiment included assaying the anti-CDH19 antibodies against mouse Cadherin19 to determine suitability for binning on these human/mouse chimeras.

In test [2] the target is T2, (1-43)::FLAG::ckCDH19(44-468)::huCDH19(464-772), on 293T cells (human/chicken chimera).
T2 construct: Entry holds leader (1-43), Flag tag and CDH19 part; leader left out; also called Hu EC5 (chicken backbone)
T2 chain: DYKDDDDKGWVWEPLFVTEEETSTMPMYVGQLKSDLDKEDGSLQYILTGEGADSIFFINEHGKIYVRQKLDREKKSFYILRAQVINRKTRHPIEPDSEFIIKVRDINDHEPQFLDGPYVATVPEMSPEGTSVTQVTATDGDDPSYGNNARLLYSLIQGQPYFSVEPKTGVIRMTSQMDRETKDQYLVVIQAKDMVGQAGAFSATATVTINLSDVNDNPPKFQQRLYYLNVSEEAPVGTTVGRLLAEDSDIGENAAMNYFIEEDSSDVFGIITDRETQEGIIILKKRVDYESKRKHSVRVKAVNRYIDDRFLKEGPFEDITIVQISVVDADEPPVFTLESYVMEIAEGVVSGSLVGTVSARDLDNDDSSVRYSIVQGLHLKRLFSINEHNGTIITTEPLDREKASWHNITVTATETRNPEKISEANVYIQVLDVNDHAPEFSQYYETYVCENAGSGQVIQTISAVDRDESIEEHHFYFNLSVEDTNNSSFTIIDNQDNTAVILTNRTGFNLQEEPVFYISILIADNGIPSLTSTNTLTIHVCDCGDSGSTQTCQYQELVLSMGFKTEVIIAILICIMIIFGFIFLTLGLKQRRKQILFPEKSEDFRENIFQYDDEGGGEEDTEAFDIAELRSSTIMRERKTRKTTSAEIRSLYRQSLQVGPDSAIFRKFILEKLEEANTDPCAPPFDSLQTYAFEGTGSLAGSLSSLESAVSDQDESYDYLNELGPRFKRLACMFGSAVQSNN
Put plainly: FACS, transfected 293T.
Method: (§2) The following binding assay was completed in presence of 2 mM CaCl2. […] Cells were then washed one time and the amount of cell associated Alexa647-labelled Ab was quantitated by flow cytometry. The experiments included mock transfected controls.

Test [3] has as its target T3, ckCDH19(1-43)::FLAG::ckCDH19(44-776), on 293T cells (chicken).
T3 construct: Entry holds leader (1-43), Flag tag and CDH19 part; leader left out; also called Ck EC1-5
T3 chain: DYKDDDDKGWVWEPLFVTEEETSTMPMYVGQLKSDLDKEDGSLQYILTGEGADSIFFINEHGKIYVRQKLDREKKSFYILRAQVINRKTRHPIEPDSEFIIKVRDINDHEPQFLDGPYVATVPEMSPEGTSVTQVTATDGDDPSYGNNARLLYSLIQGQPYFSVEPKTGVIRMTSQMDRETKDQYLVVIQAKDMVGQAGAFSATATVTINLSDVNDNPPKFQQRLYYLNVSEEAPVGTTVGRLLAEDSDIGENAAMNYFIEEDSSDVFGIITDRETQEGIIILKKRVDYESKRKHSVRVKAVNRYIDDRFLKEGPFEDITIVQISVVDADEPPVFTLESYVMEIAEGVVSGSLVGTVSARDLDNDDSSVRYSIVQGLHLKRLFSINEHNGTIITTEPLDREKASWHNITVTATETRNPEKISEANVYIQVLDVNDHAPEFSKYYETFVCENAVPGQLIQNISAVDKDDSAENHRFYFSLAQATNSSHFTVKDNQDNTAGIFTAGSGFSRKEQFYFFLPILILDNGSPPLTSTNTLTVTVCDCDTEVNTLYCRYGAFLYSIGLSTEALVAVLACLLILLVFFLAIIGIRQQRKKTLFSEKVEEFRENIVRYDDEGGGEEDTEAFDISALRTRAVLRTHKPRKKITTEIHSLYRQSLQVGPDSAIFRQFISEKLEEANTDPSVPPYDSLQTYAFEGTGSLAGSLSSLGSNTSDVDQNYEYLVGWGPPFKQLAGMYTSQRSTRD
The test is described as follows: FACS, transfected 293T.
Method: as §2

In test [4] the target is T4, ckCDH19(1-43)::FLAG::ckCDH19(44-141)::huCDH19(142-249)::ckCDH19(250-776), on 293T cells (human/chicken chimera).
T4 construct: Entry holds leader (1-43), Flag tag and CDH19 part; leader left out; also called Hu EC2 (chicken backbone)
T4 chain: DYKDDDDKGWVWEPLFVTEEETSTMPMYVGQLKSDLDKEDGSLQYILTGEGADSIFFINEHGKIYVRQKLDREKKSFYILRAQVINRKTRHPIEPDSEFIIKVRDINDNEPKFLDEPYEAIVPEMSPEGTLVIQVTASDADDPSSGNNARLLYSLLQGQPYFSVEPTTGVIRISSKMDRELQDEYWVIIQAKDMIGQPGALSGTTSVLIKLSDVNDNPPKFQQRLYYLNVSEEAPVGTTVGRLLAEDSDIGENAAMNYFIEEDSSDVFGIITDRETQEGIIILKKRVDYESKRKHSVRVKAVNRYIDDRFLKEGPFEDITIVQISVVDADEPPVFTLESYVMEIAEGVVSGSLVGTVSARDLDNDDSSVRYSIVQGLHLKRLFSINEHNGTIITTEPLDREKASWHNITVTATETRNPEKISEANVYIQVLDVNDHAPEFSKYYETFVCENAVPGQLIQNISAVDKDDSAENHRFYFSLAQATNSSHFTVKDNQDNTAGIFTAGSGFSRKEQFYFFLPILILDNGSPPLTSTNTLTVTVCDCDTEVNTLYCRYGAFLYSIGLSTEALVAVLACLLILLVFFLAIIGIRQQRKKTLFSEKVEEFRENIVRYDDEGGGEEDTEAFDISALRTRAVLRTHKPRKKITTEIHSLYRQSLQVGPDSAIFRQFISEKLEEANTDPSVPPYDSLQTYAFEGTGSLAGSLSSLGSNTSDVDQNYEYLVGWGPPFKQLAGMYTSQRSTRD
The test is described as follows: FACS, transfected 293T.
Method: as §2

In test [5] the target is T5, huCDH19(1-43)::FLAG::hu(44-141)::ckCDH19(142-776), on 293T cells (human/chicken chimera).
T5 construct: Entry holds leader (1-43), Flag tag and CDH19 part; leader left out; also called Hu EC1 (chicken backbone)
The test is described as follows: FACS, transfected 293T.
Method: as §2

Test [6] has as its target T6, huCDH19(44-249)::muCDH19(248-770), Flag-tagged, on 293T cells (human/mouse chimera).
T6 construct: also called Hu EC1-2; C137896
Put plainly: FACS, transfected 293T.
From the text: as §1

Test [7] concerns the target T7, huCDH19(44-141)::muCDH19(140-770), Flag-tagged, on 293T cells (human/mouse chimera).
T7 construct: also called Hu EC1
The test is described as follows: FACS, transfected 293T.
From the text: as §1

In another test the target is T8, Cyno Cadherin-19 (cynomolgus monkey (Macaca fascicularis), UniProt Q9H159 44-772 (human entry)).
T8 construct: also called cyno CDH19; cynomologous CDH-19
T8 chain: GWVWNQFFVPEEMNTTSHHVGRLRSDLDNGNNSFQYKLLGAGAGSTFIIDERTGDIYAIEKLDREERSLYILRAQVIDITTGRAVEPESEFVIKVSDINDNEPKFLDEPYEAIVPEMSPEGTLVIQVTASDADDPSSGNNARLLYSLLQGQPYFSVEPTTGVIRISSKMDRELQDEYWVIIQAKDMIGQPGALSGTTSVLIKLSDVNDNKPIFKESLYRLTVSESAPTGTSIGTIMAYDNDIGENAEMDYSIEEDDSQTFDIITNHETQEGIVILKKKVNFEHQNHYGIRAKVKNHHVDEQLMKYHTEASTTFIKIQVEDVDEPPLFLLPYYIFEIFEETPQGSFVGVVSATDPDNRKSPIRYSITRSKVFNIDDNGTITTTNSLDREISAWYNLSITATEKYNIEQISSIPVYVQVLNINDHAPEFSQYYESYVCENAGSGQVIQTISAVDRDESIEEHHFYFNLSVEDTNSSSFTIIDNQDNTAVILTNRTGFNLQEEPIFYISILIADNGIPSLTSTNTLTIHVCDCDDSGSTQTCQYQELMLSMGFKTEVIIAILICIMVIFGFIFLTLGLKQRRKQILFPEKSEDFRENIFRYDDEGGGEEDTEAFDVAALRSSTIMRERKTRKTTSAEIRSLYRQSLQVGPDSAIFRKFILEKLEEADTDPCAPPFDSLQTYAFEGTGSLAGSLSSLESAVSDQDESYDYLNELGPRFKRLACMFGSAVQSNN
The test is described as follows: FACS, recombinant cyno CDH19.

In a further test the target is T9, Human Cadherin-19 (human, UniProt Q9H159 44-772).
T9 construct: Residues 1-43 are named as the native leader in the construct designations and are left out; also called human CDH19; huCDH19
Put plainly: FACS, endogenous CDH19 on CHL-1/Colo699.

Residue numbers refer to the chain shown, from its start. In names and notes the source's numbering stands.

Method for Human Cadherin-19: FACS binding assays were performed to evaluate the binding of the anti-Cadherin-19 receptor specific antibodies to endogenous Cadherin-19 receptor expressed on the CHL-1 tumor cell lines.
FACs assays were performed by incubating hybridoma supernatants with 10,000 to 25,000 cells in PBS/2% Fetal bovine serum/2 mM Calcium Chloride at 4° C. for one hour followed by two washes with PBS/2% Fetal bovine serum/2 mM Calcium Chloride. Cells were then treated with florochrome-labeled secondary antibodies at 4° C. followed by one wash. The cells were resuspended in 50 μl of PBS/2% FBS and antibody binding was analyzed using a FACSCalibur™ instrument.

B1: hu anti-<huCDH19> 4B10 (1-471)(R17G,D61E,D72E) VH::huIgG1z / 4B10 (1-236)(H45Q,A90T) VL::huKLC (Ab ID 14055) (antibody, V domains shown)
VH: QVQLVESGGGVVQPGGSLRLSCAASGFTFSSYDMHWVRQAPGKGLEWVAVISYEGTNEYYAESVKGRFTISRDTSKNTLYLQMNSLRAEDTAVYYCARERYFDWSFDYWGQGTLVSVSS
VL: EIVLTQSPGTLSLSPGERATLSCRASQSVSNTYLAWYQQRPGQAPRLLIYGASSRATGIPDRFSGSGSGTDFTLTISSLEPEDFAVYYCQQYSNSWTFGQGTKVEIKR
notes: Engineered variant of 4B10
As for B1, in test [1], the binding result is “binds”.

B2: hu anti-<huCDH19> 17H8.2 VH::huIgG1z / 17H8.2 VL::huKLC (Ab ID 13874) (antibody, V domains shown)
VH: QVQLQESGPGLVKPSETLSLTCTVSGGSINSYYWSWIRQPPGKGLEWIGYIYYIGSTNYNPSLKSRVTISVDTSKNQFSLKLSSVTAADTALYYCARDSRYRSGWYDAFDIWGQGTMVTVSS
VL: DIVLTQSPGTLSLSPGERATLSCRASQSVAGSYLAWYQQKPGQAPRLLISGASSRATGIPDRFSGSGSGTDFTLTISRLEPEDFAVYYCQQYGKSPITFGQGTRLEMKG
notes: also called 23B6; 28D10
As for B2, the binding result is “no binding (tested: 5 ug/ml)” in test [2], “no binding (tested: 5 ug/ml)” in test [3], “no binding (tested: 5 ug/ml)” in [4] and “binds” in [5].

B3: hu anti-<huCDH19> 26D1.1 (1-469)(R27G,G82R) VH::huIgG1z / 26D1.1 (1-235)(H1Q,S7P) VL::huLLC-C2 (Ab ID 14088) (antibody, V domains shown)
VH: QVQLVQSGAEVKKPGASVKVSCKASGYTFTSYYMSWVRQAPGQGLEWMGIIHPSGGDTTYAQKFQGRVTMTRDTSTSTVYMELSSLRSEDTAVYYCARGGIKLWLHFDYWGQGTLVTVSS
VL: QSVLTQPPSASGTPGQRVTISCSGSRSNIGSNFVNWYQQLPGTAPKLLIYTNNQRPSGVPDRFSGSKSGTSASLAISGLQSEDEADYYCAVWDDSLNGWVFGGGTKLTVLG
notes: Engineered variant of 26D1
Consider B3, for which the binding result in test [1], in [6] and in [7] was “binds” each time.

B4: hu anti-<huCDH19> 20D3.1 VH::huIgG1z / 20D3.1 VL::huLLC-C2 (Ab ID 13878) (antibody, V domains shown)
VH: QVQLVQSGAEVKKPGASVKVSCKVSGYTFTSYFIHWVRQAPGQGLEWMGIINPISVSTSYAQKFQGRVTMTRDTSTSTVFMELSSLRSEDTAVYYCARGGIQLWLHFDYWGQGTLVTVSS
VL: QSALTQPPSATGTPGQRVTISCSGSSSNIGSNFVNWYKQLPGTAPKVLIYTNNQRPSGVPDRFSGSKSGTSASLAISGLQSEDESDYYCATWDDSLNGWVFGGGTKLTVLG
notes: also called 16H2; 23E7
With B4, the binding result with Cyno Cadherin-19 and in the test with Human Cadherin-19 was “binds” each time.

B5: hu anti-<huCDH19> 25F8.1 VH::huIgG1z / 25F8.1 (1-235)(K45Q,S102A) VL::huLLC-C2 (Ab ID 14094) (antibody, V domains shown)
VH: B4 VH with V24A, F33Y, I54S, S55G, V56G, S59R
VL: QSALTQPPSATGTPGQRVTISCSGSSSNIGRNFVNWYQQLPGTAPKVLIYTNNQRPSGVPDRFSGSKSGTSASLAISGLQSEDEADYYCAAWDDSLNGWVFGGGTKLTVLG
notes: Engineered variant of 25F8
Turning to B5, the binding result in [1], in test [6] and in test [7] was “binds” each time.

B6: hu anti-<huCDH19> 19B5.1 VH::huIgG1z / 19B5.1 VL::huLLC-C2 (Ab ID 13885) (antibody, V domains shown)
VH: B4 VH with F107L
VL: QSALTQPPSTTGTPGQRVTISCSGSRSNIGSNFVNWYKQLPGTAPKVLIYTNNQRPSGVPDRFSGSKSGTSASLAISGLQSEDESDYYCATWDDSMNGWVFGGGTKLTVLG
Turning to B6, the binding result with Cyno Cadherin-19 and in the test with Human Cadherin-19 was “binds” in each case.

B7: hu anti-<huCDH19> 22D1.1 VH::huIgG1z / 22D1.1 VL::huLLC-C2 (Ab ID 13879) (antibody, V domains shown)
VH: B4 VH with K19R, F107L
VL: B6 VL with T10A, R26S
With B7, the binding result in the test with Cyno Cadherin-19 and with Human Cadherin-19 was “binds” each time.

B8: hu anti-<huCDH19> 4A9 VH::huIgG1z / 4A9 (1-239)(F47L) VL::huLLC-C1 (Ab ID 14056) (antibody, V domains shown)
VH: QVQLQESGPGLVKPSETLSLTCTVSGGSISGYYWSWIRQPPGKGLEWFAYFSYSGSTNYNPSLKSRVTLSVDTSKNQFSLKLSSVTAADTAVYYCARNWAFHFDFWGQGTLVTVSS
VL: QSVLTQPPSVSGAPGQRVTISCTGSSSNIGTGYAVHWYQQLPGTAPKLLIYGNNNRPSGVPDRFSGSKSGTSASLAITGLQAEDEADYYCQSYDSRLSGWVFGGGTKLTVLG
notes: Engineered variant of 4A9
B8: the binding result in [1], in test [6] and in test [7] was “binds” in each case.

B9: hu anti-<huCDH19> 4A9 (1-468)(F55I,A56G) VH::huIgG1z / 4A9 (1-239)(F47L) VL::huLLC-C1 (Ab ID 14057) (antibody, V domains shown)
VH: B8 VH with F48I, A49G
VL: B8 VL
notes: Engineered variant of 4A9
Take B9: the binding result in test [1], in [6] and in test [7] was “binds” each time.

For the origin of these results see US20140322218A1 (Amgen, published 2014).
